Reference: PMC4581524 (Journal of cellular biochemistry, 2015)

T1: monomeric RANK (UniProt O35305 31-214)
T1 sequence (looked up): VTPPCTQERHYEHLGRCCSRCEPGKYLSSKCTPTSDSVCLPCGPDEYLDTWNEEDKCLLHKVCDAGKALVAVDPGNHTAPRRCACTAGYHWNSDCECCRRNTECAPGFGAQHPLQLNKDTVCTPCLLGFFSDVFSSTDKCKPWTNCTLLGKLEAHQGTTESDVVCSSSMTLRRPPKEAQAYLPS


Target: T1, monomeric RANK
Experiment: SPR

| Kd [nM] | koff [s⁻¹] | kon [M⁻¹ s⁻¹] | Binder |
| --- | --- | --- | --- |
| 899 | 0.101 | 113000 | RANKL K194E (ligand, Homotrimer; limits by convention (mouse RANKL ectodomain core). Species inferred: the printed numbering fits mouse) KPEAQPFAHLTINAASIPSGSHKVTLSSWYHDRGWAEISNMTLSNGKLRVNQDGFYYLYANISFRHHETSGSVPTDYLQLMVYVVKTSEKIPSSHNLMKGGSTKNWSGNSEFHFYSINVGGFFKLRAGEEISIQVSNPSLLDPDQDATYFGAFKVQDID |
| 67 | 0.017 | 174000 | RANKL K194E/Q236H (ligand, Homotrimer; limits by convention (mouse RANKL ectodomain core)) KPEAQPFAHLTINAASIPSGSHKVTLSSWYHDRGWAEISNMTLSNGKLRVNQDGFYYLYANISFRHHETSGSVPTDYLHLMVYVVKTSEKIPSSHNLMKGGSTKNWSGNSEFHFYSINVGGFFKLRAGEEISIQVSNPSLLDPDQDATYFGAFKVQDID |
| 29 | 0.005 | 167000 | RANKL K194E/Q236H/F269Y (ligand, Homotrimer; limits by convention (mouse RANKL ectodomain core)) KPEAQPFAHLTINAASIPSGSHKVTLSSWYHDRGWAEISNMTLSNGKLRVNQDGFYYLYANISFRHHETSGSVPTDYLHLMVYVVKTSEKIPSSHNLMKGGSTKNWSGNSEYHFYSINVGGFFKLRAGEEISIQVSNPSLLDPDQDATYFGAFKVQDID |
| 81 | 0.023 | 300000 | RANKL Q236H (ligand, Homotrimer; limits by convention (mouse RANKL ectodomain core)) KPEAQPFAHLTINAASIPSGSHKVTLSSWYHDRGWAKISNMTLSNGKLRVNQDGFYYLYANISFRHHETSGSVPTDYLHLMVYVVKTSEKIPSSHNLMKGGSTKNWSGNSEFHFYSINVGGFFKLRAGEEISIQVSNPSLLDPDQDATYFGAFKVQDID |
